Source: PMC8223476 (2021)

Biological target: Biotinylated SARS-CoV-2 (COVID-19) S protein RBD, His, Avitag (bRBD) (SARS-CoV-2, UniProt P0DTC2, biotinylated)
Test: flow cytometry on cells

B1: C119 (IgG) (antibody, V domains shown)
VH: QVQLVQSGAEVKKPGASVKVSCKASGYTFTSYYMHWVRQAPGQGLEWMGIINPSGGSTSYAQKLQGRVTMTRDTSTSTVYMELSSLRSEDTAVYYCARANHETTMDTYYYYYYMDVWGKGTTVTVSS
VL: QSALTQPASVSGSPGQSITISCTGTSSDVGGYKYVSWYQRHPGKAPKLMIYDVSNRPSGVSNRFSGSKSGNTASLTISGLQAEDEADYYCSSYTSSSTSVVFGGGTQLTVL
binding result: binds
